# Measurements: the domain aggregation screens of Martell et al. (2025)
# Experiment: soluble fraction after stress (log2 fold change); higher = more stays soluble; pooled small domains, quantitative proteomics
# Settings: stress: 75 degC
# 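Also: 20 min heating vs room temperature control held 20 min.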
row,Sequence,soluble fraction (log2)
1,HMSETIVFGQQKAINTLSSEAGLSSAELNNYLKKRYQRPLFQLTVSEGADLIQGFQDGTLTKASITQYVSQ,-0.0878
2,HMSETQDQTTIEIEDMITVGTLAERLSIPVSTLIGELMKNGVMATVNEKIDFDTAQIIVGELKLPIELSKK,0.0487
3,HMSEYEYALHEFGITKKQSQRIFDRLSIADLEERINAIQTTLKQRSDIDNPAAYAWTVLNAE,-0.0603
4,HMSEYLDIHMAMEKLNRKEQLFVHLRFYEGLTQSEIAQRLFTSQVQISRLEKSVLEKMRQILSK,-2.2
5,HMSEYTRGELVSSLEAGEVAAVSIRPNRETPTGEAQIVLSDGQHRVLYVTDVREIEELVSSYGLNPQVEK,0.196
6,HMSFDNIKVGYISETAGYVKGISLADANEYAKLNPDTEFIFIDGDEKVRFLTINEVNGLTPKNLLRSDP,0.229
7,HMSFGFFELKSSDTDKLFAYLNNNEHFGNIKEENGLVTAFLTSELDAQTLNKLLFDNGIIASHLVKRK,-0.928
8,HMSFMPDPSIHDAITYTVRSGDYLGKISTTFGVKVSDLQKWNSIKSNIIYPGQKLTVWVSSNKRESLQ,-1.71
9,HMSFPLKRGSKGNRVTQLQNALVKKFGASILPKYGVDGMFGKEVEAALVRAKLPTSINESTYNSFV,0.125
10,HMSFVAYEEEKAIGMVRLIGDGGMSFYIKDFAVLPGHQGKGVGQMLLMELQQYLLEHKPADWAVSLE,-0.359
11,HMSGAKLLAPVTGTLLRYTVAEGTKVSEGQTVIMLESMKMELEINAHKAGVIHFTAAAGAQVAEGDSLAEI,-0.945
12,HMSGDKKLQMNLILEFAQQNESFRTKDIEELLQIRSSRARKLISDLVTEGRLEALGENRNRRYQLI,-1.05
13,HMSGDYRALYSSLPPERASSVVDALNVAGIPYRIQDSTGAIMVPAEQIYDARIRLAGQGLGK,0.104
14,HMSGEPKNERQIEVPDVTKKSIREANNILTSEGLRLRIEGTGLAVSQKPAAGTMVEPDTIITVTFQAP,0.441
15,HMSGHEVMVQRITAIIAELYQYGFVSRKKMMDEFNISERTLYRDLNRLGDRIVPDGDGIYRLAPAYA,-1.55
16,HMSGHIPGIKIKGVIFFDKGSSSNHIIATTENNSNLKLRVGETVQGAVLKSIHPNHVIFFHHNQLIEVGIG,-4.39
17,HMSGKGEFDQLLRSGEYVQAFQRANANGNVTLRRQQLLNLARHQAASGVGSGAIESLSTIQRI,0.00597
18,HMSGKMTVPNVVGKTETEAKSALSAKGFTNVRTETVDSTEAAGTVVKQSLDADSVQDPKTEIVLSVSNG,0.946
19,HMSGKWKIRILWYIAEYEVQRFGELRRRLGDITQSTLTEQLRELEQDGFVSRYVYQEVPSKVEYSLTE,0.197
20,HMSGKWSILILHALEQGPKRFNVLHRELSGITQATLTKQLRQLEEDGIILRKAYPQIPPKVEYQLTEIG,-1.82
21,HMSGNPLDTYYSKWSAEIKKGSPNAVISKEGDKYYVSIPGENRMAIIYENPHLIRMVNATRNIHVE,-0.092
22,HMSGPSDRDLFDEALALLSGSGREPDYHEARIRLGTLVEQFPESKWAEGAKALLSMLDRVSALQV,0.247
23,HMSGPVITEERNIANALISGLANMKETPTREQVERKAQQIAELFGYTGDLRNIITEAMISVDT,-0.0406
24,HMSGRPPTYTAEERSAVIAAALSRPADLGLPFASWTLDRLVAYLGEKGIGMKRSRMSEVLLAEGLKW,-2.02

row,Sequence,soluble fraction (log2)
1,HMSGSGYAYVDKYGYSHVVKDYDTAKNYASDGNVYNYSGSHKGGYAYDADNYRVPLDLPGSKPYG,0.191
2,HMSGSIIQQAENLERQFGDTREAILGTLSDPKMSEEILETLMERYNKQHGTNWDKNTWAEEWAKANK,0.682
3,HMSGSILVQVSATDLNIRKGPGTNYGTTGKYTGKGTFTIVETRSGQGSNAGWGKLKSGAGWISLDYAKR,-1.54
4,HMSGTESMIEGRGEARTAIDGEGKVFFQGEYWTAQSDQFIPQGAKVRIKKVEGLNLIVEEIK,0.065
5,HMSGTYIVTVQANTLDIYKSMTSNDTIGKANKGDVFQILEDMGGGYAKVSYNDVEGYISIKDGDTSIDEM,-0.389
6,HMSGVIVPDIYNKTLAEAVASLEGEGFSTEKKEGYSDTVPKGNVMSQKPEAGTSAERGSTVTITISQGPQ,0.0579
7,HMSGWIATGTATSTGNDVRVRSTPDATVNNNILLTLNKGNRFEIDGQTQNGFYHIKVNDTIGWISGLYVKE,-0.976
8,HMSGYFSDKKLNELFEQYLIMREKKGKPVVGYQLKILIDRLNQVAANTKEKIEVVSNAIAGDWNTFYPIKR,-2.07
9,HMSHDTLVYRLAQMLVKLNQGEKLDPQQLAEEFGVNLRTIQRDLNVRFAYLQLEKTDGRYHLDPTFL,-1.46
10,HMSHLTKKQEEVLLFIRDYYEEEGRSPSYSDIQHHFGLKSKSSVQDYIGYLKKAGFLQKSVGSRAIELV,-2.52
11,HMSHQIIIVAVELDPSTERIVYYLSKNGISINVLFFKVFQHGDEQFLSRVWLIDPSETQTNAALA,-0.726
12,HMSIESMVGRFGVVTKDVVANEMAGKVKVGREEFRATADIAVSSGTKVKVTHAEGITLTVVPE,0.611
13,HMSIGKEATPDDIVPNIRVYHATFGYGNVIKTDGVSHDKKAVVNFDSVGEKTLLLKFAKLILPY,-0.557
14,HMSIGLEGFVGKLGISTSDLRPSGWGEFDAKKLFVVTEGEFVDRKEKIEILSVDGNRILVRKIS,-1.56
15,HMSILPGVYRHYKGNHYQVFYLAKHSETLEDMVVYQALYGERGIWVRPASMWNETVDDQGKQVKRFTYI,-3.58
16,HMSILYNAVKGTLVSSGALTADSWYKISSFGTASALPALKVGSIFKTPEGAGDAITLASGDSVYPLTLT,-1.28
17,HMSINQTIEGKKQGYWIIYGNMRNLQEYLSNEVIEEGQFKNSRKEGVWRKYFPGGQMKSEITYINGRP,-0.266
18,HMSINTIIAKNLNRLRNERNLSLGQLAELSGVSKVMLSQIEKGDSNPTVNTIWKIASGLNVPYTAILDQP,-0.798
19,HMSIPVLKDGTYESWGNEKVYKVGDRVMVGSNGYVAKWWNQDETPEKAIINPNDSPWRPMTESEIMEVLK,-0.128
20,HMSISEADAKKIALEKVPGATDSNLRIKTDYDDGIMKYEVKIVYNEMKYEFDIDAATGTILEWESESVY,-1.37
21,HMSISSSEAARSAVASSGGTVLGVSKASHGGYKAWAVRIQRADGSVVTGYVDRASGTVYDWVVNQAA,-0.663
22,HMSKEDDSLVVTFRRMLLEEVDLHELSRIDANQRRARLERVIAHLVSREGVILSASERNQLVRRVVDEAV,-2
23,HMSKEEAIQAMKEGKKVTHRFFSSDEWMTIENGFLLLEDGVRISLEDFFNFRSDSLWDNGYELYNPH,-0.628
24,HMSKFSDTLVYLRKRAGFSQQELADKMEVSRSLVGMYESGQRMPSYEMLEALADIFNVNIDFLTGH,-1.28

row,Sequence,soluble fraction (log2)
1,HMSKIRSEINKFSSDADKPILEWLFERYHWASQWRFVARFSEQRYGVLSYEINRVWEPTIEGRALYDQL,-2.27
2,HMSKKMLASIFDTISGIGKKRLKKIWDNYTSLNELKDDSLENIYAKTQIPINLITKIKEKLE,-0.913
3,HMSKKMTNEEILNFLKKVLIKHGKISGFIIDEDDNGPSSSVVASRFGGLLNAYKLINYTPER,-0.906
4,HMSKMTLGENLRLLRREKGLSQEQVAQTLFVARQTISKWENGQAEPGVESLKALAKLYGVSLDRLVGA,-1.01
5,HMSKPLEVFKLTSEPFGFSFNTALGRSYTVEATGDLGVWKAVELFQGSGGEIRFTAKPTSSGGAQFFRVFV,0.0649
6,HMSKPVYILINKPKGFLASSTDKKVKKSVNDLINISNLNKIYPFDNMGRTSSGLLLLSNDLYFKKHFKDKI,0.451
7,HMSKQKRIKYFLSILNIKSIKQFRKKDLDYFYQKRFIEIQKSSKDKKLVSNQLIELNAAKEYLDEIDFEN,-3.78
8,HMSKQQVRSILDDIPNIGETRRKALMRQFQSLEKIREASVGQLREVDGMNEKAAQSVYQFFHK,-0.0426
9,HMSKQVDVVIYILENTKAADNTYIGTYRKTADGAGVSLDTATKVMRKLQENNFIKKVQNGVYQISPLIMM,-1.42
10,HMSKRDDLLDQASEWLAKLDRDLTVVEERELKAWLGESAAHRETFIQMAKLWDKMESLSRLTDL,-0.898
11,HMSKSVEQRRQQIVAWVKEHGQSQVEDLAVRFATSEVTIRKDLAALSQQGLLIRQFGGAVPVPA,-0.982
12,HMSKTQYTFKEVGSQFQLFAPSTKHTIMISADHPKYGWLTNQDQGRVINVYDTGKMTSSQDYYGLYKEVT,0.587
13,HMSKTQYTFREVGSQFELHAPSTNHKIMVDANHPKYGWLSSQEAGRVINVYESGKMTSSQDYYGLYKQS,-0.092
14,HMSLANTSVKEMLNDLVKNEEPSKPLSDEALVKIFKEKGVKIARRTVAKYRAELNILPSHLRRT,-1.56
15,HMSLAVFLQGLLEEKQLKKADVIRRTGMEPTYGYHIFDGHKKHPARSKVLLLALAMGLTVKEAQHLLYYAG,-0.423
16,HMSLDAAAVASKLIKRLSKSPGRRFALDDLAVDVGLPHEQGRPLVRSALELLVRTQQAVEGPPNVFRLFF,-2.51
17,HMSLEDMILSLSSRIRRGESLHFRELLVAIETKSGMVTIFMAVLELLKQQVMEMRYEDDDIIFT,-1.04
18,HMSLEEIPLEERLGPGGLDPVAVYDSLPREMRDAFDSGSVSALREFVNALPAEDAARHMKAMVDSGLWVPT,0.148
19,HMSLETRRYQLPRTDAQTASGLLRSLSGLPGVREVNLSGEGVAYLKVDSKGFDEQNVIKLLAGE,0.47
20,HMSLHSITIPQEFIGAVIGPGGKVIQEIQKQTGTTITITEKDNKGYVDIFGEDKGALDSALARIKEIVAIP,0.289
21,HMSLIDYLNELMNEKNITVAQVAKNSGIGEYVYKIFNGERNAKRDTLVAISFGMHLNFEETQLLLRIA,-1.19
22,HMSLPALALRQADSLAFKQVIYHDRVVPFNTLARDFVLKLTGKPSYGGMTPEQVVGGWLLRPEVWQNEPM,0.192
